Test results: patent US20210261685A1 (Alector, published 2021)
Changes are numbered by the printed parent chain.

B1: MTK-17 (antibody, human IgG1, V domains shown)
VH: QIQLVQSGPELKKPGETVKISCKASGYTFTNFGMNWVKQAPGKGLKWMGWINTYTGEPTYADDFKGRFAFSLETSASTAYLQINNLKNEDTATYFCSRGAVLRAGAMDCWGQGTSVTVSS
VL: DIQMTQSSSYLSVSLGGRVTITCKASDHINNWLAWYQQKPGNAPRLLISGATSLETGVPSRFSGSGSGKDYTLSITSLQTEDVATYYCQQYWSTPRTFGGGTKLEIK
B2: MTK-12 (antibody, human IgG1, V domains shown)
VH: QVQLQQSGPQLVRPGASVKISCKASGYSFTSHWMHWVKQRPGQGLEWIGMIDPSDGESRLNQKFKDKATLTVDKSSSTAYMQLSSPTFEDSAVYYCARGIYYYGITYAMDYWGQGTSVTVSS
VL: QIVLTQSPAIMSASPGEKVTMTCSASSSVSYMYWYQQKPRSSPRLLIYDTSNLASGVPVRFSGSGSGTSYSLTISRMEAEDAATYYCQQWSSYPLTFGAGTKLELK
B3: MTK-01 (antibody, human IgG1, V domains shown)
VH: QIQLVQSGPELKKPGETVKISCKASGYTFTNYGMNWVKQAPGKGLKCMGWINTYTGEPTYADDFKGRFAFSLETSATTAYLQINNLKNEDTATYFCARRDRYTWFAYWGQGTLVTVSA
VL: QIVLSQSPAILSASPGEKVTMTCRASSSVSYMHWYQQKPGSSPKPWIYATSNLASGVPARFSGSGSGTSYSLTISRVEAEDAATYYCQQWSSNPPTFGGGTKLEIK
B4: MTK-15 (antibody, human IgG1, V domains shown)
VH: QIQLVQSGPELKKPGETVKISCKASGYTFTNYGVHWVKQAPGKGLKWMGWINTYTGEPTYADDFKGRFAFSLETSASTAYLQINNLKNEDMATYFCARGNRYAYMDYWGQGTSVTVSS
VL: B3 VL with P39S, P95R
B5: MTK-29 (antibody, human IgG1, V domains shown)
VH: QIQLVQSGPELKKPGETVKISCKSSGFTFTTYGMSWVKQAPGKGLKWMGWINTYSGVPTYTDDFKGRFAFSLETSASTASLQINNLKNEDTATYFCARYTNYGYFDYWGQGTTLTVSS
VL: B3 VL with S26T, S30G, D81H, S91G, P95F, G99S
B6: MTK-04 (antibody, human IgG1, V domains shown)
VH: B3 VH with T77S, T91M, R98K, R99Y, R101N, T103A
VL: B3 VL with I10F, Q36L, A59V, P95R, K106R
B7: MTK-33 (antibody, human IgG1, V domains shown)
VH: QVQLQQPGPELVRPGTSVKLSCKASGYTFTSYWMHWIKQRPGQGLEWIGVIDPSDNYINYNQKFKGKATLTVDTSSSTAYLQLSSLTSEDSAVYYCAREAGTRGYFDYWGQGTTLTVSS
VL: SIVMTQTPKFLLVSAGDRVIITCKASQSVSNTVAWYQQKPGQSPKLLIYYASNRYTGVPDRFTGSGYGTDFTFTISTVQAEDLAVYFCQQDYRSPFTFGSGTQLEMK
B8: MTK-03 (antibody, human IgG1, V domains shown)
VH: DVQLQESGPGLVKPSQSLSLTCSVTGYSITSGYYWNWIRQFPGNTLEWMGYMSFDGDNKFNPSLKNRISITRDTSKNQFFLRLNSVTTEDTATYYCARGGYNYGSTEANWGQGTLVTVSA
VL: QIVLTQSPAIMSAFPGEKVTITCSASSSVNYMHWFQQKPGTSPKLWIYSTSNLASGVPARFSGSGSGTSYSLTISRMEAEDAATYYCQQRSSYPFTFGSGTKLEIK
B9: MTK-07 (antibody, human IgG1, V domains shown)
VH: B8 VH with A120T
VL: B8 VL with N30T, Y48F
B10: MTK-11 (antibody, human IgG1, V domains shown)
VH: QVQLKQSGPGLVQPSQSLSITCTVSGFSLTDYGVHWVRQSPGKGLEWLGVIWSSGTTDYNEAFISRLSISKDNSKSHVFFKMNSLQAIDTAIYYCARKGHDPYAMDYWGQGTSVTVSS
VL: QIVLTQSPAIMSASLGERVTMTCTASSSISSSYFHWYQQKPGSSPKLWIYSTSNLPSGVPARFSGSGSGTSYSLTISSMEAEDAATYYCHQYYRSPLTFGAGTKLELK
B11: MTK-20 (antibody, human IgG1, V domains shown)
VH: QIQLVQSGPELKKPGETVKISCKASGYTFTNYGMTWVKQAPGKGLKWMGWINTYTGEPTYADDFKGRFALSLETSASTAYLQINNLKNEDTATYFCARGGGRLGLRPLDYWGQGTTLTVSS
VL: DIQMTQTTSSLSASLGDRVTISCRASQDINNYLNWYQQKPDGTVKLLIYYTSRLHSGVPSRFSGSGSGTDYSLTISNLEQEDIATYFCQQGNTLPWTFGGGTKLEIK
B12: MTK-18 (antibody, human IgG1, V domains shown)
VH: B11 VH with N31H, L70F, R102Q
VL: B11 VL with I21F, D28A, N30S
B13: MTK-21 (antibody, human IgG1, V domains shown)
VH: B11 VH with Y32F, K38R, K43M, G44D, T59K, N84T, L86F
VL: B11 VL with R53S, S76T, K103R
B14: MTK-19 (antibody, human IgG1, V domains shown)
VH: EVQLQQSGPELVKPGASVKISCKTSGYTFTEYTMHWVKQSHGKSLEWLGGFNPNNVITSYNQRFQGRATLTVDKSSSTAYMELRSLTSDDSAVYYCTRGDLLWSLLLPGNYFDYWGQGTTLTVSS
VL: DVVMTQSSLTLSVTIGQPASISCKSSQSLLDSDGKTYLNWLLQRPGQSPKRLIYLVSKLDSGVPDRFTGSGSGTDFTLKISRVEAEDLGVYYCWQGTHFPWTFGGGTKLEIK
B15: MTK-05 (antibody, human IgG1, V domains shown)
VH: QVQLQQSGAELVQPGTSVRLSCKTSGYTFTSYWIQWVKQRPGQGLGWIGEIFPGTGTTYYNEKFKGKATLTIDTSSSTAYMQLSSLTSEDSAVYFCARDGAYFDVWGAGTTVTVSS
VL: DIQMTQSPASLSASVGETVTFTCRASENIFSYLAWYQQKQGKSPQLLVYNAKTLAEGVPSRFSGSGSGTHFSLKINSLQPEDFGSYYCLHHYGTPLTFGAGTKLELK

These binders were tested against T1, Recombinant human MerTK human Fc Chimera protein (R&D systems, Cat #391-MR-100) (human, UniProt Q12866 26-499, limits assumed) (assay: competition ELISA, His-ProS on captured MerTK-Fc).
T1 construct: Bought; also called recombinant human MerTK protein; MerTK-Fc
T1 sequence: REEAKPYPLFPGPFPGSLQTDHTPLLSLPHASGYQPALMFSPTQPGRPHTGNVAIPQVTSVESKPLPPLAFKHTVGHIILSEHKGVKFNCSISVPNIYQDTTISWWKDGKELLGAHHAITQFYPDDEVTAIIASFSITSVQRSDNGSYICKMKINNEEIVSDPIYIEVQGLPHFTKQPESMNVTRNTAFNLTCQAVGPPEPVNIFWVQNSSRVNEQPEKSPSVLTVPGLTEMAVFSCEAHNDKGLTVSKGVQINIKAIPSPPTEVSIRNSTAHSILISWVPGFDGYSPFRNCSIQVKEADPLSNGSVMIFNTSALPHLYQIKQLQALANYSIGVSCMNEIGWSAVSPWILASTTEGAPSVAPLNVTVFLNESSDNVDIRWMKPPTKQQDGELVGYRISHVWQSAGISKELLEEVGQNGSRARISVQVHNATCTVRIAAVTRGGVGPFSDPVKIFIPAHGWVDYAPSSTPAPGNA
Protocol: Rabbit anti-human IgG polyclonal antibody (Jackson ImmunoResearch, Cat #309-005-008) was captured to a high-protein binding plate at 2 μg/ml 4° C. overnight. After washing with 0.05% Tween20 in PBS three times, 5% BSA in PBS was added for 1 hour. Recombinant human MerTK human Fc Chimera protein (R&D systems, Cat #391-MR-100) was added at 2 μg/ml for 1 hour and the plates were then washed. Anti-MerTK antibodies were titrated to final concentration range of between 66.6 nM to 4 pM and then 40 μl of serially diluted antibody and 40 μl of His tag-conjugated recombinant Gas6 protein (R&D systems, Cat #885-GSB-050) at 3 μg/ml or His tag-conjugated recombinant ProS protein (R&D systems, Cat #9489-PS-100) at 20 μg/ml. After a further incubation for 1 hour, plates were washed and incubated for 1 hour with HRP-conjugated anti-6×His tag antibody (Abcam, Cat #ab1187). Plates were then washed and an HRP substrate (TMB) was used to develop the plates. After sufficient color change was observed, the reaction was stopped by adding 50 μl 2N H₂SO₄ and the OD was measured using a spectrophotometer (BioTek).
From these experiments, IC50 values [nM] were determined using OD450 values obtained from the dose-response curves analyzed with Prism software. Table 14 and Table 15 show IC50 values determined for anti-MerTK antibody blocking of Gas6 ligand binding and ProS ligand binding to MerTK. […] Dashes indicate lack of significant blocking; “n.a.” indicates data not available.

Binder	IC50 [nM]
B1	8.35
B2	3.36
B3	2.85
B4	4.2
B5	2.66
B6	12.8
B7	0.601
B8	3.65
B9	3.27
B10	24.2
B11	5.16
B12	4.76
B13	13.5
B14	11.3
B15	6.51

These binders were tested against T2, human MerTK endogenously expressed on cells (SK-MEL-5 cells; human macrophages) (human, UniProt Q12866 21-999) (assay: flow cytometry on SK-MEL-5 cells, Prism fit).
T2 construct: also called MerTK on SK-MEL-5
T2 sequence: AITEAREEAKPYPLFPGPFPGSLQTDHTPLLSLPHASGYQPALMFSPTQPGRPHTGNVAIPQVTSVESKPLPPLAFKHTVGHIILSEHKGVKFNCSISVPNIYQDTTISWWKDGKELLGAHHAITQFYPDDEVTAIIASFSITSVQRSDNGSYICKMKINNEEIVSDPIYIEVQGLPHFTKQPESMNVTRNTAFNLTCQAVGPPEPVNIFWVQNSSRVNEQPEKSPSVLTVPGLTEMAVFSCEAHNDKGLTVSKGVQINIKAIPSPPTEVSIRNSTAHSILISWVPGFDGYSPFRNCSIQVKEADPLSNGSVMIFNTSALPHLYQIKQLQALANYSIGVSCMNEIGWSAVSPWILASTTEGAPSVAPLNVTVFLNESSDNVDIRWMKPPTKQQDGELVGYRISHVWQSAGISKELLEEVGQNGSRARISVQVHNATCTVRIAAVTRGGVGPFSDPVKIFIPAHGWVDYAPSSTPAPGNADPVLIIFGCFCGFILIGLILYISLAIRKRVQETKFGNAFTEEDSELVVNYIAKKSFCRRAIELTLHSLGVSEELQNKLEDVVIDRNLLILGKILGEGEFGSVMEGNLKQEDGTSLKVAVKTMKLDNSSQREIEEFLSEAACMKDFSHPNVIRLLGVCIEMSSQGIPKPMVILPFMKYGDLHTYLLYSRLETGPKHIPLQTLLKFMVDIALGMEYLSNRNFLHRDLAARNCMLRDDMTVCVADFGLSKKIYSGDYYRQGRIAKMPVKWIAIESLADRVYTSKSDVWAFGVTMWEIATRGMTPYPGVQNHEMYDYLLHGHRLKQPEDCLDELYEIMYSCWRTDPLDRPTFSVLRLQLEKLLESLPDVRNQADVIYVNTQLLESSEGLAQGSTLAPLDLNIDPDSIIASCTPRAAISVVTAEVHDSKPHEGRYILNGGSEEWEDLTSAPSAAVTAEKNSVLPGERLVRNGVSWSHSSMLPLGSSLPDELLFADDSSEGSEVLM
Protocol: To determine whether recombinant anti-human MerTK antibodies of the present disclosure bind to human MerTK endogenously expressed on SK-MEL-5 cells and to CHO cells overexpressing mouse MerTK (CHO-muMerTK OE cells), the following experiments were performed. SK-MEL-5 cells and CHO-muMerTK OE cells were plated at 40,000 cells/well. Anti-MerTK antibodies were titrated to a final concentration range of between 66.6 nM to 4 pM and then added to the cells. After 30 min on ice, cells were washed and then stained with APC-conjugated mouse anti-human Kappa antibody (Southern Biotech Cat #9230-11, Birmingham, Ala.) and a viability die (Life Technologies) in the presence of Fc block solution on ice for 30 minutes, and then washed twice with cold FACS buffer (2% FBS in PBS). Cells were fixed with 4% paraformaldehyde in PBS. Stained cells were acquired on a BD FACS Canto II cytometer and the mean fluorescence intensity (MFI) was calculated with FlowJo software and K value was calculated with Prism software. […] A lower Kd value reflects higher binding of antibody to cells.

Binder	Kd [nM]
B1	12.7
B2	0.009
B3	0.049
B4	0.19
B5	0.14
B6	0.037
B7	0.93
B8	2.64
B9	3.21
B10	3.54
B11	0.11
B12	0.38
B13	23.4
B14	3.07
